Source: the RNAGym collection of RNA variant scans (doi:10.7554/elife.80360)

B1: HDV Ribozyme (parent)
chain: GGCCGGCAUGGUCCCAGCCUCCUCGCUGGCGCCGGCUGGGCAACAUUCCGAGGGGACCGUCCCCUCGGUAAUGGCGAAUGGGACCCA

Variants of: B1
Experiment: self-cleavage, relative activity (ratio to wild type); higher = more cleavage; co-transcriptional

First: C3G G17A
Second: G17U C84A
The self-cleavage of the first is lower: 0.102 for the first, 0.445 for the second.

First: C19G G73U
Second: C3A G34C
The self-cleavage of the first is lower: 0.0545 for the first, 0.0903 for the second.

Compared with A16C U79G, G25A G34U is lower in self-cleavage: 0.692 for the first, 0.0702 for the second.

Going from G59A C75U to C44U C49A, the self-cleavage rises from 0.159 to 0.892.

Going from A8C A56G to U23G G54C, the self-cleavage falls from 0.939 to 0.598.

Going from G59A A87G to C24U U46A, the self-cleavage falls from 1.04 to 0.53.

First: G39A A51U
Second: G25C U72C
The self-cleavage of the first is higher: 0.521 for the first, 0.123 for the second.

First: G6A G34C
Second: G38U C86U
The self-cleavage of the first is lower: 0.104 for the first, 0.241 for the second.

First: U47G G55C
Second: C13A G81A
The self-cleavage of the first is higher: 1.07 for the first, 0.16 for the second.

Compared with G2A C57G, C14U U20G is lower in self-cleavage: 0.158 for the first, 0.145 for the second.

Compared with C19A G29A, G52C C86G is higher in self-cleavage: 0 for the first, 0.997 for the second.

Compared with C66G A70C, C41G A45G is higher in self-cleavage: 0.758 for the first, 1.01 for the second.

Compared with C3A C48U, C18G A77U is lower in self-cleavage: 0.635 for the first, 0 for the second.

Compared with G5U C49G, G38U A70G is higher in self-cleavage: 0.0831 for the first, 0.227 for the second.

Compared with A45U C85A, U9G G39C is lower in self-cleavage: 0.88 for the first, 0.196 for the second.

First: G52A A70C
Second: G6U G35U
The self-cleavage of the first is higher: 0.791 for the first, 0.143 for the second.

Going from A71G C85U to A71U C86G, the self-cleavage falls from 0.962 to 0.752.

First: C4U G80U
Second: G5A U9G
The self-cleavage of the first is lower: 0.0683 for the first, 0.111 for the second.

First: C24A G40C
Second: C32A G82U
The self-cleavage of the first is higher: 0.117 for the first, 0.104 for the second.

Compared with G53C C58U, G35A G53C is lower in self-cleavage: 1.14 for the first, 0.65 for the second.

Going from C24U G59A to G25U C85U, the self-cleavage falls from 0.623 to 0.415.

Going from G40A C41G to U47A G80U, the self-cleavage falls from 0.937 to 0.172.

Going from C21U U72A to G25C C64A, the self-cleavage rises from 0.141 to 0.203.

Going from A56G C85G to C4G C75U, the self-cleavage falls from 0.831 to 0.0396.

First: C13A G55A
Second: G73C G82U
The self-cleavage of the first is higher: 0.222 for the first, 0.0707 for the second.

Going from C41U A56G to U23A G31C, the self-cleavage falls from 0.7 to 0.44.

First: U12A G81U
Second: G31A A70U
The self-cleavage of the first is higher: 0.122 for the first, 0.101 for the second.

Going from C22G G76U to G67C C86G, the self-cleavage rises from 0.089 to 0.933.

First: C14U G59U
Second: C15G G31C
The self-cleavage of the first is higher: 0.997 for the first, 0.178 for the second.

First: G35A C85A
Second: C32U C75U
The self-cleavage of the first is higher: 0.644 for the first, 0.315 for the second.

Going from C32A C75G to A51C G82A, the self-cleavage rises from 0.285 to 0.298.

First: G76A U79A
Second: G31A U72G
The self-cleavage of the first is higher: 0.831 for the first, 0.145 for the second.

First: C26U G50A
Second: A43U G68A
The self-cleavage of the first is higher: 1.07 for the first, 0.408 for the second.

Compared with G50C C62U, C36A G53A is lower in self-cleavage: 0.939 for the first, 0.218 for the second.

Going from C22U U37G to C4U U12G, the self-cleavage rises from 0.101 to 0.465.

Going from A8C G80U to C26A A87C, the self-cleavage rises from 0.07 to 0.944.

First: G29A G55U
Second: C33G G34C
The self-cleavage of the first is higher: 0.168 for the first, 0 for the second.

First: G54U A83C
Second: A8C C15G
The self-cleavage of the first is higher: 0.386 for the first, 0.378 for the second.

Going from C7U C21A to U23G G52A, the self-cleavage rises from 0.0314 to 0.554.

First: U65G C85A
Second: U20C A56G
The self-cleavage of the first is higher: 1.11 for the first, 0.101 for the second.

First: C63A A77C
Second: U37C C41U
The self-cleavage of the first is lower: 0.268 for the first, 1.29 for the second.

First: G1U U72C
Second: G34A C66G
The self-cleavage of the first is higher: 0.237 for the first, 0.138 for the second.

Compared with U27A G40U, G54C C86U is higher in self-cleavage: 0.793 for the first, 0.923 for the second.

Compared with G1C G2U, C21A C75A is lower in self-cleavage: 0.256 for the first, 0 for the second.

Going from C13U U47G to G74U A77G, the self-cleavage falls from 0.95 to 0.312.

Going from C32U A43C to C3A U37G, the self-cleavage falls from 0.196 to 0.0685.

Going from C57G U69A to C32A A43U, the self-cleavage falls from 0.767 to 0.108.

Going from C22U C57U to C62U G68A, the self-cleavage rises from 0.817 to 0.946.

Going from G52C G80U to A43C A51G, the self-cleavage rises from 0.299 to 0.499.

Compared with C3A U46G, C33A A77C is higher in self-cleavage: 0.026 for the first, 0.0707 for the second.

Compared with C22A G68C, C61U U65A is higher in self-cleavage: 0.22 for the first, 0.616 for the second.

Compared with C61A C63G, C21U G53A is lower in self-cleavage: 0.499 for the first, 0.116 for the second.

First: C36U C61U
Second: C33A C36U
The self-cleavage of the first is higher: 0.726 for the first, 0.0396 for the second.

Compared with C13U C48G, C63G G68U is higher in self-cleavage: 0.499 for the first, 0.504 for the second.

Going from G67U G73U to C36G C84U, the self-cleavage falls from 0.263 to 0.0755.

First: C4U C22G
Second: G17C G53A
The self-cleavage of the first is lower: 0.111 for the first, 0.281 for the second.

Compared with C26U G53A, G28C C48U is lower in self-cleavage: 1.16 for the first, 0.0978 for the second.

Going from U47A U60G to C24U A45C, the self-cleavage falls from 1.02 to 0.26.

First: G11C C44G
Second: C19G G81C
The self-cleavage of the first is lower: 0 for the first, 0.0462 for the second.

First: A42U G54C
Second: C57U G68C
The self-cleavage of the first is lower: 0.381 for the first, 0.85 for the second.

Going from C48G A51C to C24G C66U, the self-cleavage falls from 0.88 to 0.166.

Going from G2U C22G to A16U C57G, the self-cleavage rises from 0.0193 to 1.22.

Compared with G10A C64U, C64G U65G is higher in self-cleavage: 0.661 for the first, 0.943 for the second.

First: G10A G82A
Second: A56G C57U
The self-cleavage of the first is lower: 0.176 for the first, 0.985 for the second.

Compared with C48U A51C, C62G C85G is lower in self-cleavage: 0.919 for the first, 0.911 for the second.

First: G10A G53C
Second: U23C U37G
The self-cleavage of the first is higher: 0.742 for the first, 0.266 for the second.

First: G55A G68U
Second: G11U C64U
The self-cleavage of the first is higher: 0.965 for the first, 0.519 for the second.

Going from C19A C86U to C18G G74U, the self-cleavage rises from 0.0674 to 0.116.

First: G17C C58U
Second: G10C C66G
The self-cleavage of the first is lower: 0.302 for the first, 0.646 for the second.

Compared with G11A C86U, G39U A78G is lower in self-cleavage: 0.338 for the first, 0.198 for the second.

Compared with A43C A56G, G2C A56U is lower in self-cleavage: 0.404 for the first, 0.0482 for the second.

First: C15G C44A
Second: C4A A16U
The self-cleavage of the first is higher: 0.237 for the first, 0.0665 for the second.

Going from A70C C85G to G2A G68U, the self-cleavage falls from 1.2 to 0.0645.

First: G53C A83C
Second: G34U C57U
The self-cleavage of the first is higher: 0.525 for the first, 0.174 for the second.

Compared with G5C U79A, C15U U65G is higher in self-cleavage: 0.185 for the first, 0.914 for the second.

Compared with C36U A77G, A16C U65A is higher in self-cleavage: 0.475 for the first, 0.65 for the second.

First: G25C U79C
Second: C33A A42G
The self-cleavage of the first is higher: 0.0923 for the first, 0 for the second.

Compared with C75G C85G, U12A U79C is higher in self-cleavage: 0.0923 for the first, 0.166 for the second.

First: C4U C57U
Second: C26G C33U
The self-cleavage of the first is lower: 0.656 for the first, 0.867 for the second.

Compared with C63A C75A, G2A C18G is lower in self-cleavage: 0.338 for the first, 0.0817 for the second.

Compared with G1C C14G, C26U A78G is higher in self-cleavage: 0.0615 for the first, 1.07 for the second.

Compared with A16C A83U, G2A G59C is lower in self-cleavage: 0.633 for the first, 0.244 for the second.

Going from G31C to C57U C64U, the self-cleavage rises from 0.363 to 0.845.

C63U C64U showed a self-cleavage of 1.08.
